Results published in a protein production outcome set (Wang et al. 2014).

Assay: label from the status in PepcDB records

| Sequence | protein production |
| --- | --- |
| MSGAGKKIADVAFKASRTIDWDGMAKVLVTDEARREFSNLRRAFDEVNTQLQTKFSQEPEPIDWDYYRKGIGAGIVDKYKEAYDSIEIPKYVDKVTPEYKPKFDALLVELKEAEQKSLKESERLEKEIADVQEISKKLSTMTADEYFEKHPELKKKFDDEIRNDNWGY | failed |
| GVKYTIAVLGPQGSFSEEMALKLVGSRVPLRYCSTTDEIIKLVESGEVDYGLVPIENSVNGTVLPVIDALLNHDVEVFGEAKLEVNHCLVAKRKIELKEIKTIYSHPQAVAQCMGFINNYLPSVAIRYTTSTSDAARMLDDYSAAIMSENAARFYRLHVLRKGIQDLKGRNITRFYLIRRRSG | failed |
| MASKEAHVSLARGEQSVKRIKEFDPGKDSFSVLLLGIDAREKNGETVDQARSDANVLVTFNRKEKTAKMLSIPRDAYVNIPGHGYDKFTHAHAYGGVDLTVKTVEEMLDIPVDYVVESNFTAFEDVVNELNGVKVTVKSDKVIQQIKKDTKGKVVLQKGTHTLDGEEALAYVRTRKADSDLLRGQRQMEVLSAIIDKSKSLSSIPAYDDIVDTMGQNLKMNLSLKDAIGLFPFITSLKSVESIQLTGYDYEPAGVYYFKLNQQKLQEVKKELQNDLGVLEHHHHHH | not failed |
| MNGGTFTPGKEKDRAGIYFNFKTTAEERVSIGDRGTVALPVVMSWGEPKTFVSISSIEDLNKKVGLNIDDPSLLLFREAKKNAQTVLLYRLNTGAPAKAQIGETLSVTAKYGGEKGNDISIRISENVLDSKKFDVTTFVGTDEADRQTVKTAEELTANAYVAFQGEGALELTAGTKLSGGENGTASVADYTAFLDAAETEYFNTIALPVADNEQLKATFAAFIKRLRDKQGQKVQGVVADYAGDYEGIINVTGGVVLEDGTEITPEKATAWVAGASAGATFNQSLTFVEYEGAVDVLNRLDEDQVIERLKKGEFLFTFDARDQSVSVEKDINSLTSFTADKNKKFSKNKIIRVLDGVNNDLTRELKALIKARKASGSDIPASDDGLQYVKTLIIQYMTALQEAGGITGFDSESDIAITLNEDRDGFLIDLAVQPVDAAEKFYFNVEVK | failed |
| VDMLLVGAGIMSATLAVLLKELDPNLKMEVVELQESGAIESSNPWNNAGTGHAGLCELNYTPQSADGSIDIKKAVGINTMFEVSKQFWSHLVAKGTFGSPKTFINPVPHLSFVRGSEGIAYLKKRFESLTKHHAFETMVYSEDKATLAEWMPLMMPGRPADEAIAATRVEGGTDVNFGALTNQLLQHLAQQPGAQIRYNQKVTHLRRADNGWRVTVKDTRNGGDREIQARFVFLGAGGGALPLLQLSGIPEGKGFGGFPVSGQWLRCDNPEIVKQHQAKVYSQAEVGSPPMSVPHLDTRVVDGKKSLLFGPYAGFSTKFLRHGSFLDLPLSVRPGNILPMLSVARDNMDLTRYLIGQVMQSPEQRLEALRKFYPEARAEDWRLEVAGQRVQIIKKDPKKGGILQFGTELVAAHDGSIAALLGASPGASVTVSIMLGLIERCFPEQARSPEWSAKLKEIFPAREKELESDAELYRSVSSRCSEVLELTAKNDVQAPVNAE | failed |
| MDMKTKLQTIIGMFQITAWDETSYFESDNGAKLTQAVITQSYQGVLQGHSEIRYLMSYQDNANATFVGFEHFTGSLGDKKGSFILQHKGLFAAGVASSEFELVERSATGDFVHLVGKGHFVSTENGQANYQITLQDS | not failed |
| MHPCHRPSFAFLRHPLSIVVCLALLAGCSTSPLQFPEPLLAKSEKAKATEGVALVSDDGKKAPASLAVPKTEFSGTPTSPRSIVGGVVDRMDKAILDDKKADISLNVEDVQLAAFINEVFGNILGLPFEIESALKEKTDRVTVRLEQPQTAQMVYEVARQVLVNYGVEILHQGDIYRFQIKQVGLSPDEPPILISGEARPSVPIAYRPVFQFVALHSVDPKDVIPWLNSAYEKSGLSVMADGARSGLMLKGMSSIVNQATEAVRLLDQPFMRGRHSLRIDPAFVSAADMASQLKTVIAAQGYSVGIGEAVGSIMLVPLESSNGLIVFANDGQLLDLVREWAQQVDRAPMAVAAGIGEEKEGLFFYEARNTRVTELAKSLRALVSGFAGEGAYGITSGLQSSASKRSGGGRRAGDDGAAPAVAPLLQAAGAAALVGGDGANGLLGGLAAGISGSGTIVEDENRNAILFRGAARTWQQMQGLLREMDKPARQVLIEVTVASVSLSDTQELGVEWEMLNGSFNSATSTGSKGSAGKGGFNYVINTAGGNTAAIQAMADNQRVRVLATPRILVKSGEQANINVGRDIPIPTAQVNDDSTTAGSTNLRNEIAYRSTGTILNVAPVVYSDSRVDLTVSQELSDSGGSSGGGGKASGGGISAPEISRTSLETSLTLKSGGSVLMGGLIRDNITDSNAGVPLLKDIPGIGFLFGRQKAVKTREEVIMLIQPYVLESDADAREVTEKLHAMLSKTLACSDRPGACRME | failed |
| MTVVSVDKDVEALSFSIVAEFDADVKRVWAIWEDPRQLERWWGPPTWPATFETHEFTVGGKAAYYMTGPDGTKARGWWQFTTIEAPDHLEFDDGFADEHGAPVDELGVTHATVKLEPLENRTRMTIISTFESEEQMQKMAEMGMEEGMREAIEQIDAVLSEPANALEHHHHHH | not failed |
| MRIGMRLLLGYFLLVAVAAWFVLAIFVKEVKPGVRRATEGTLIDTATLLAELARPDLLSGDPTHGQLAQAFNQLQHRPFRANIGGINKVRNEYHVYMTDAHGKVLFDSANKAVGQDYSRWNDVWLTLRGQYGARSTLQNPADPESSVMYVAAPIMGGSRLIGVLSVGKPNAAMAPVIKRSERRILWASAILLGIALVIGAGMVWWINRSIARLTRYADSVTDNKPVPLPDLGSSELRKLAQALESMRVKLEGKNYIEQYVYALTHELKSPLAAIRGAAEILREGPPPEVVARFTDNILTQNARMQALVETLLRQARLENRQEVVLTAVDVAALFRRVSEARTVQLAEKNITLHVMPTEVNVAAEPALLDQALGNLLDNAIDFTPESGCITLSAEVDQEHVTLKVLDTGSGIPDYALSRIFERFYSLPRANGQKSSGLGLAFVSEVARLFNGEVTLRNVQEGGVLASLRLHRHFT | failed |
| MAPAEPACRCAAAPCSSMIGIDRGSAARLILFRKTFYNIEHTFGRLIVASDLRGLAKYVEPGIRLAVPVDYAGVSMAMTRPIIERKAGNLHLICVPTGGLQVDQLIGSGLVRTVETSAVTLGEAGGAPRFNAAVKDGSIKLMDATCPAIHAGLMAAQKGSPFMPMRGLIGSDILRHRKDWRVIDNPLSDGGDPVVLIPAIKPDVTIFHAPMADRFGNVWIGRRRELAAMAYASATTLVTVERIVEESLLANEITAAGVLPAIYVTEVALAPKGAWPYGLWGEYQTDTQELVRYARAARTAEGFADYMATTQMEPA | failed |
| MDWYVGTEWEDKNRGLAKKVIGLQFTEMDKPTIISTVEFSVNKKATNLGGRPSKYLVSDESATYPQKHSLEMGTSLTAVDCYLELLLQQFVPGETAACSITTKTGERIEFELKLEKIVKNTQVEKLSAAEIYEVALRLKESGVATFKTFPKFAFDYFVRAAKLLITYKPFDKLTKKTNGINGQAVEELFIQIQTNLAACLLQEKRYEHVIYHTQFVETEESPSEKSIYRRALAYYHLKEFAKAQATIERMPNYEEKREFSKLRDNIAVSWKDSKAHYKEVVQRMFS | failed |
| MKKQIALVALLFLGMSCFNASAQFKKFNLGKAIQAGKDAAQAISLSDADIAAMSKEYMEWMDKHNPLTKPDSEYGKRLERLTGNIKEVDGMKVNFGVYEVVDVNAFACGDGSVRICAGLMDVMTDEEVMAVIGHEIGHVIHTDSKDAMKNAYFRSAVKNAAGAASSQVAKLTDSELGAMAEALAGAQYSQKQEYEADAYGVEFCVKNNIDPYGMYKSLNKLLELSNGAPASSYMQRMFSSHPDTAKRVARAKELADKYKQLEHHHHHH | not failed |
| MPVFRRHASQNCASIPPMMLFKRPDTETLYFALVNKDPAYEGVAYVCVTSTKIFCRFTCTARKPKIENCRFRETITECLEAGFRPCKRCKPMLSYGTPDGTVTALLTALENEPARRWREEDVVALGHDPSTVRRSFKRRFGMSFLEIARLRRVGDAAESLASGEAVIGAQIDAGYESGSGFRSAINQLFGTSPAAMKGRGFLKGDWIDTPIGPMLAVADDHALHLLEFADRPALPAELKRLKARTGADMVLGRTAVTGQIAAELAAYFAGRSGSFETRLAGHGTPFERDVWRNLREIPAGEIVSYSSLATAMERPTAVRAVARANGANQLAIVVPCHRVLGADGSLTGYGGGLWRKKWLIEHERRMARGQMLGMPLASLEHHHHHH | failed |
| NKKIYVGMTADIMHPGLIHIIHEATKYGDVIVGLLTDKAIAEHKRLPYLTYDQRKEVVENIKGVCEVVPQEDWSYVPNLEKLKPDYIIHGDDWKTGPLREVREQVFEVMNAQGGKVIEIPYTRGINSSSLDKDIKAIGT | failed |
| GSHMDKTFCVVVQNRIKEGYRRAGFSFHLGDNSLAAVSESQLAQLKADPRLVVQITETGSQEGGEGLSKEPAGSDEQKQLRADPPSTDLNTFTVEQLKAQLTERGITFKQSATKAELIALFAPADGEKSEA | not failed |
| MRKNILITGVHGYIGNALKDKLIEQGHQVDQINVRNQLWKSTSFKDYDVLIHTAALVHNNSPQARLSDYMQVNMLLTKQLAQKAKAEDVKQFIFMSTMAVYGKEGHVGKSDQVDTQTPMNPTTNYGISKKFAEQALQELISDSFKVAIVRPPMIYGAHCPGNFQRLMQLSKRLPIIPNINNQRSALYIKHLTAFIDQLISLEVTGVYHPQDSFYFDTSSVMYEIRRQSHRKTVLINMPSMLNKYFNKLSVFRKLFGNLIYSNTLYENNNALEIIPGKMSLVIADIMDETTTKDKA | failed |
| MKKLLFAIDDTEACERAAQYILDMFGKDADCTLTLIHVKPEFMLYGEAVLAAYDEIEMKEEEKAKLLTQKFSTFFTEKGINPFVVIKEGEPVEMVLEEAKDYNLLIIGSSENSFLNKIFASHQDDFIQKAPIPVLIVK | not failed |
| MAALSNLKQCPPFSTLPDLALRHNHIPELERYPQINLNSELLANPAGQRYYGGQSFVSVNEGVLKRIARSFFNGGFWKTLEEARSPETREQAPLIAQAGDLIAQFLGLATGLRILPHTQQLSAERIAQFVETRDWLNSDVRYLAWNQHFFCLAVAGVDDVVRIYTKSSSATTATVLKSPSQTQITCMAWRPLCASEIVIGCRQGLCFWEVDSTLHLGRTNAPSEIFKYPNNLPITSMQWNKDGTQLATASIGDRSIIIWQPDTGMMQPLKRLGPPGSLLKWSPDNDWLFAATVDRVFRVWNCHQQWTTERWVCGPGGYVQTACWSPCGRFLLFVSSAEPILYRLQFVQQSLLSSSADEKEILPIADLNACSIDANRTLVGGPAQQLAWDPHGNYLVVTFKATNCIAVFRTFIQKFDLQISAAYYLSGETAAEHPSFICFQPLYEDNDRSVLTIAWSSGRIQYYAFD | failed |
| MMSQISLADLNAADKADFVAALANVVEYSPWIAEKLAGQRPFTGINQLHAALMAAIQSAEPDVQLALIRAHPDLANKTQRAAGLTAESTDEQNSAGLDRLSDAEYAAFERVNNAYREKFGFPYIVCVRRHTKDSVLRDFETRLLNIAKTETRRAIEEIGRISALRLDQLVVADDKLKVHGRLSTHVLDNHAGKPAPGIPVELIELASLGESRVIARTVTNADGRTDQPLIGGRPLPIGRYELRFRVAKYYAERNVPLSEPPFLDEIPLRFAISEPENHYHVPLLVTPWSYATYRGS | failed |
| MNKQLRNNMIVLLFAVILSLILNVAHILLPFMFGPIIASVICVRVFRLEIEWPFWLSQIGLVLLGVQIGSTFTKNVILDIKDDWLTIILITVMLLALALVIAFFFKKIAKVNTETAILSVIPGALSQMLIMAEENKRANIMVVSLTQTSRIIFVVILVPFISYFFRDNGSNGSLEKATTKVLTDAVSIPQILLLALAVFIVYIIMSKINFPTKQLLAPIIVLISWNLITGVTFTLDNYIIASAQVIYMIRIGLQIAKLLDQMKGRIAVAIAFQNVLLILLAFIMVLLISMVSNHSVNELFLGAAPGGMSQIVLVAIETGADVALISSYHIFRIFFILFLIAPLLGHLLKYIDRSHS | failed |
| MVVRTWRSMQERYNLIGSKCKTCGTVYFPARSVCPECRRKGELEDYKLNGKGKVYTYSVVYAAPKDFEKQSPYVIGIVELEEGTKITSQIDCEPEEVKIGMPVEATFRKIREDGCDGVISYGYKFVPTEQLEHHHHHH | failed |
